# Results reported in US20210163580A1 (NATIONAL HEALTH RESEARCH INSTITUTES, published 2021).
# Positions of bridges follow the written chain, without caps; N, C: chain ends. No end group written: not given here.
# T1: recombinant human RSPO3 protein (human, UniProt Q9BXY4 22-272)
# T1 sequence (looked up): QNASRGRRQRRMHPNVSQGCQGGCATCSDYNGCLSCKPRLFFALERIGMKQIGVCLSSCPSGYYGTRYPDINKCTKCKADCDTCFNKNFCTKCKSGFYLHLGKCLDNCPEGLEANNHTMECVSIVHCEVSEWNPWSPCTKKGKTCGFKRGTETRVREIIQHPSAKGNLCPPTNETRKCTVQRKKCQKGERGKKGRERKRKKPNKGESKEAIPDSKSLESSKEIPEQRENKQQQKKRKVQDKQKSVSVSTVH
# T2: peptide B-44-53 (Homo sapiens, UniProt Q9BXY4, disulfide (positions not given here); also: biotinylated, intrachain disulfide, Cys pairing not given here)
# T2 construct: synthetic cyclic peptide, a.a; also called cyclic peptide a.a; 44-53 derived from hRSPO3
# T2 peptide (looked up): CATCSDYNGC
# T3: peptide B-40-47 (Homo sapiens, UniProt Q9BXY4, disulfide (positions not given here); also: biotinylated, intrachain disulfide, Cys pairing not given here)
# T3 construct: synthetic cyclic peptide, a.a; also called cyclic peptide a.a; 40-47 derived from hRSPO3
# T3 peptide (looked up): CQGGCATC
# T4: peptide B-79-94 (Homo sapiens, UniProt Q9BXY4, disulfide 1-16 (inferred); also: biotinylated)
# T4 construct: synthetic cyclic peptide, a.a; also called cyclic peptide a.a; 79-94 derived from hRSPO3
# T4 peptide (looked up): CPSGYYGTRYPDINKC
# Assays:
# [1] = biological target: T1, recombinant human RSPO3 protein; test: cell-based or functional assay
# peptide B-44-53 = biological target: T2, peptide B-44-53; test: ELISA: biotinylated cyclic peptide (1 µg/ml) on NeutrAvidin plate, hB1, anti-human IgG-Fc-HRP, OD 450 [B]
# Procedure: (§1) FIG. 9 is a set of schematics and graphs showing epitope studies of several α-RSPO3 antibodies. […] Streptavidin-HRP was then added for detection of the bound biotinylated antibody. (B) The biotinylated cyclic peptides, at 1 μg/ml, and biotinylated recombinant human RSPO3, at 100 ng/ml, were applied to NeutrAvidin pre-coated plates. […] To detect bound anti-RSPO3 antibodies, Goat anti-human IgG-Fc-HPR (Chemicon) was then applied to the plates.
# (§2) Further conformation epitope studies of α-RSPO3 Abs were performed using recombinant RSPO3 truncated proteins and cyclic peptides scanning to narrow down their target sequences. […] RSPO3 contains a furin-like cysteine-rich region. Until now, the 3D structure of RSPO3 has not been reported. Additionally, four cyclic peptides (a.a. 40-47, 44-53, 56-75 and 79-94) were designed to measure the binding of α-RSPO3 mAbs to the cyclic peptides derived from hRSPO3.
# peptide B-40-47 = biological target: T3, peptide B-40-47; test: as above
# Procedure: as §1, §2
# peptide B-79-94 = biological target: T4, peptide B-79-94; test: as above
# Procedure: as §1, §2
# [2] = biological target: T1, recombinant human RSPO3 protein; test: SPR (Biacore T200); hRSPO3 immobilised on CM5 chip, antibody injected, single-cycle, 1:1 model
# Procedure: FIG. 7 is a graph showing use of Biacore to measure the binding kinetics of α-RSPO3 Abs-antigen interaction. The binding sensorgrams were generated using a Biacore T200 and then fitted to a simple 1:1 interaction model. […] The association was monitored for 2 min, and the final dissociation time was 15 min hRSPO3 was immobilized on a CMS chip at 27.5 RU.
# The binding kinetics between α-RSPO3 Abs and recombinant human RSPO3 protein (hRSPO3) were performed at 25° C. using a Biacore T200 biosensor equipped with a CMS Series S Sensor Chip (GE Healthcare). […] Obtained sensorgrams were corrected by double subtracting the signal obtained on a reference surface and the signal of the running buffer. Sensograms were fit globally with BIAcore T200 evaluation software 3.0 using 1:1 binding model to yield affinity constants (KD values) for α-RSPO3 Abs. Replicate measurements were made in separate experiments, using independently prepared α-RSPO3 Abs dilution series and huRSPO3-coated chip surfaces.
# [3] = biological target: T1, recombinant human RSPO3 protein; test: competition ELISA on coated hRSPO3; blocked ligand: biotinylated LGR5 (22-560)-Fc, streptavidin-HRP [A]
# Procedure: After removing extra detection antibodies by washing the plates with 1× PBST, a TMB substrate solution was added to each well for 10 minutes.
# Recombinant human RSPO3 (Peprotech) at 500 ng/ml was coated on the plates.
binder,measurement,setting,value
"humanized anti-RSPO3 antibody hB1 (antibody, V domains shown, Humanized from murine B1) VH: QIQLQESGPGLVKPSESLSLTCSVTGYSITSGYYWNWIRQFPGNGLEWMGYISYDGTNNYNPSLKDRISITRDTSKNQFFLKLNSVTAADTATYYCSVLLIQYFNIWGKGTTVTVSS VL: DIQMTQSPSSLSASVGERVTITCRTSESVNNFLAWFHQKPGKSPKLLVYHAKTLADGVSSRFSGSGSGTQYSLKINSLQPEDFGNYYCQHFWSIPWTFGGGTKLEIKR","IC50 in the WNT reporter assay (MDA-MB436 TCF/LEF-Luc, Wnt3a plus hRSPO3)",[1],58 nM
same,binding result,peptide B-44-53,no binding
same,binding result,peptide B-40-47,no binding
same,binding result,peptide B-79-94,no binding
same,Kd,[2],0.0268 nM
same,koff,[2],3.4e-05 s⁻¹
same,kon,[2],1.7e+06 M⁻¹ s⁻¹
same,IC50 (read off the curve),[3],~0.9 µg/mL
